In this test the target is T1, human TNFR2 (human, UniProt P20333 23-461).
T1 construct: expressed on the surface of CHO cells; also called HuTNFR2; TNFRSF1B
T1 sequence: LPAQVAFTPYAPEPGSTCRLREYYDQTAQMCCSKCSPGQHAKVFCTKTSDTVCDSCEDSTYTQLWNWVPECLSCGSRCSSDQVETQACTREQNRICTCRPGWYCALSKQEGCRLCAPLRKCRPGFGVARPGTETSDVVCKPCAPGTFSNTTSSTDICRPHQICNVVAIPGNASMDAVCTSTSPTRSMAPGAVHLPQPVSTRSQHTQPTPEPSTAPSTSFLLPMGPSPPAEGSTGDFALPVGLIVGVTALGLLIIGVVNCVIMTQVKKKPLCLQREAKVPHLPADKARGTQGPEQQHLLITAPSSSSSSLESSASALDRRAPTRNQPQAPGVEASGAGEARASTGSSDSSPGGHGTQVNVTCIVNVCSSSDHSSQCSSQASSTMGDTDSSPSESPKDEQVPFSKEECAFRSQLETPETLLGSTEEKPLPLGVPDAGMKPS
Briefly: binding to human TNFR2 CHO cells.

Numbering of substitutions follows the chain as printed.

B1: TetraFab 2171 (antibody)
heavy: QVQLVQSGAEVKKPGASVKVSCKVSGFSFPSSGVDWVRQAPGQGLEWLGVTRGEGSTHYNQKFQGRVTITKDTSKSTVYMELSSLRSEDTAVYYCASGEWDEGFVYWGQGTLVTVSSASTKGPSVFPLAPSSKSTSGGTAALGCLVKDYFPEPVTVSWNSGALTSGVHTFPAVLQSSGLYSLSSVVTVPSSSLGTQTYICNVNHKPSNTKVDKKVEPKSCGGGGSQVQLVQSGAEVKKPGASVKVSCKVSGFSFPSSGVDWVRQAPGQGLEWLGVTRGEGSTHYNQKFQGRVTITKDTSKSTVYMELSSLRSEDTAVYYCASGEWDEGFVYWGQGTLVTVSSASTKGPSVFPLAPSSKSTSGGTAALGCLVKDYFPEPVTVSWNSGALTSGVHTFPAVLQSSGLYSLSSVVTVPSSSLGTQTYICNVNHKPSNTKVDKKVEPKSCDKTHTCPPCPAPEAAGAPSVFLFPPKPKDTLMISRTPEVTCVVVDVSHEDPEVKFNWYVDGVEVHNAKTKPREEQYNSTYRVVSVLTVLHQDWLNGKEYKCKVSNKALPAPIEKTISKAKGQPREPQVYTLPPSREEMTKNQVSLTCLVKGFYPSDIAVEWESNGQPENNYKTTPPVLDSDGSFFLYSKLTVDKSRWQQGNVFSCSVMHEALHNHYTQKSLSLSPGK
light: DIQLTQSPSFLSASVGDRVTITCKASQNVGTAVAWYQQKPGKAPKLLIYAASTLQSGVPSRFSGSGSGTEFTLTISSLQPEDFATYYCLQYSSYPLTFGGGTKVEIKRTVAAPSVFIFPPSDEQLKSGTASVVCLLNNFYPREAKVQWKVDNALQSGNSQESVTEQDSKDSTYSLSSTLTLSKADYEKHKVYACEVTHQGLSSPVTKSFNRGEC
notes: TetraFab
In the case of B1, the binding result was “no binding”.

B2: TetraFab 2173 (antibody)
heavy: B1 heavy with R52L, E54H, R277L, E279H
light: B1 light
notes: TetraFab
In the case of B2, the binding result was “no binding”.

B3: TetraFab 2153 (antibody)
heavy: B1 heavy with R52K, E54Q, W100Q, R277K, E279Q, W325Q
light: B1 light with Y91K
notes: TetraFab
In the case of B3, the binding result was “no binding”.

B4: TetraFab 2142 (antibody)
heavy: B1 heavy
light: B1 light with Y91K
notes: TetraFab
For B4, the binding result is on record as “no binding”.

B5: TetraFab 2172 (antibody)
heavy: B1 heavy with R52F, G53Q, R277F, G278Q
light: B1 light
notes: TetraFab
B5: the binding result is “no binding”.

B6: TetraFab 2191 (antibody)
heavy: B1 heavy with R52L, E54H, W100S, D101T, R277L, E279H, W325S, D326T
light: B1 light
notes: TetraFab
For B6, the binding result was “no binding”.

B7: TetraFab 2174 (antibody)
heavy: B1 heavy with R52H, E54S, R277H, E279S
light: B1 light
notes: TetraFab
Turning to B7, the binding result is reported as “no binding”.

B8: TetraFab 2162 (antibody)
heavy: B1 heavy with R52L, E54H, W100S, D101T, R277L, E279H, W325S, D326T
light: B1 light with Y91K
notes: TetraFab
As for B8, the binding result is reported as “no binding”.

B9: TetraFab 2175 (antibody)
heavy: B1 heavy with R52W, E54V, W100S, D101T, R277W, E279V, W325S, D326T
light: B1 light
notes: TetraFab
Take B9: the binding result is “no binding”.

B10: TetraFab 2056 (antibody)
heavy: B1 heavy with R52F, G53Q, R277F, G278Q
light: B1 light with L89Q
notes: TetraFab
Take B10: the binding result was “no binding”.

B11: TetraFab 2069 (antibody)
heavy: B1 heavy with W100R, W325R
light: B1 light with L89Q
notes: TetraFab
Take B11: the binding result is “no binding”.

B12: TetraFab 2179 (antibody)
heavy: B1 heavy with R52K, E54Q, W100S, D101T, R277K, E279Q, W325S, D326T
light: B1 light
notes: TetraFab
Consider B12, for which the binding result is “no binding”.

B13: TetraFab 2154 (antibody)
heavy: B1 heavy with W100S, D101T, W325S, D326T
light: B1 light with Y91K
notes: TetraFab
As for B13, the binding result is given as “no binding”.

B14: TetraFab 2147 (antibody)
heavy: B1 heavy with R52W, E54V, W100H, R277W, E279V, W325H
light: B1 light with Y91K
notes: TetraFab
Consider B14, for which the binding result is on record as “no binding”.

B15: TetraFab 2058 (antibody)
heavy: B1 heavy with R52H, E54S, R277H, E279S
light: B1 light with L89Q
notes: TetraFab
B15: the binding result was “no binding”.

B16: TetraFab 2063 (antibody)
heavy: B1 heavy with R52K, E54Q, W100S, D101T, R277K, E279Q, W325S, D326T
light: B1 light with L89Q
notes: TetraFab
With B16, the binding result was “no binding”.

B17: TetraFab 2065 (antibody)
heavy: B1 heavy with R52K, E54Q, W100R, R277K, E279Q, W325R
light: B1 light with L89Q
notes: TetraFab
B17: the binding result is “no binding”.

B18: TetraFab 2176 (antibody)
heavy: B1 heavy with R52W, E54V, W100H, R277W, E279V, W325H
light: B1 light
notes: TetraFab
For the molecule B18, the binding result is “no binding”.

B19: TetraFab 2075 (antibody)
heavy: B1 heavy with R52L, E54H, W100S, D101T, R277L, E279H, W325S, D326T
light: B1 light with L89Q
notes: TetraFab
In the case of B19, the binding result was “no binding”.

B20: TetraFab 2192 (antibody)
heavy: B1 heavy with R52L, E54H, W100H, R277L, E279H, W325H
light: B1 light
notes: TetraFab
In the case of B20, the binding result is “no binding”.

B21: TetraFab 2060 (antibody)
heavy: B1 heavy with R52W, E54V, W100H, R277W, E279V, W325H
light: B1 light with L89Q
notes: TetraFab
B21: the binding result is on record as “no binding”.

B22: TetraFab 2066 (antibody)
heavy: B1 heavy with R52K, E54Q, W100Q, R277K, E279Q, W325Q
light: B1 light with L89Q
notes: TetraFab
With B22, the binding result is on record as “no binding”.

B23: TetraFab 2059 (antibody)
heavy: B1 heavy with R52W, E54V, W100S, D101T, R277W, E279V, W325S, D326T
light: B1 light with L89Q
notes: TetraFab
Regarding B23, the binding result was “no binding”.

B24: TetraFab 2054 (antibody)
heavy: B1 heavy with R52K, E54Q, R277K, E279Q
light: B1 light with L89Q
notes: TetraFab
As for B24, the binding result is “no binding”.

B25: TetraFab 2163 (antibody)
heavy: B1 heavy with R52L, E54H, W100H, R277L, E279H, W325H
light: B1 light with Y91K
notes: TetraFab
Take B25: the binding result was “no binding”.

B26: TetraFab 2167 (antibody)
heavy: B1 heavy with R52H, E54S, W100H, R277H, E279S, W325H
light: B1 light with Y91K
notes: TetraFab
Consider B26, for which the binding result is “no binding”.

B27: TetraFab 2055 (antibody)
heavy: B1 heavy
light: B1 light with L89Q
notes: TetraFab
As to B27, the binding result is “no binding”.

B28: TetraFab 2156 (antibody)
heavy: B1 heavy with W100R, W325R
light: B1 light with Y91K
notes: TetraFab
For the molecule B28, the binding result is “no binding”.

B29: TetraFab 2150 (antibody)
heavy: B1 heavy with R52K, E54Q, W100S, D101T, R277K, E279Q, W325S, D326T
light: B1 light with Y91K
notes: TetraFab
For B29, the binding result is on record as “no binding”.

B30: TetraFab 2185 (antibody)
heavy: B1 heavy with W100R, W325R
light: B1 light
notes: TetraFab
On to B30, for which the binding result was “no binding”.

B31: TetraFab 2182 (antibody)
heavy: B1 heavy with R52K, E54Q, W100Q, R277K, E279Q, W325Q
light: B1 light
notes: TetraFab
B31: the binding result is reported as “no binding”.

B32: TetraFab 2057 (antibody)
heavy: B1 heavy with R52L, E54H, R277L, E279H
light: B1 light with L89Q
notes: TetraFab
On to B32, for which the binding result is “no binding”.

B33: TetraFab 2079 (antibody)
heavy: B1 heavy with R52H, E54S, W100S, D101T, R277H, E279S, W325S, D326T
light: B1 light with L89Q
notes: TetraFab
B33: the binding result was “no binding”.

B34: TetraFab 2076 (antibody)
heavy: B1 heavy with R52L, E54H, W100H, R277L, E279H, W325H
light: B1 light with L89Q
notes: TetraFab
As to B34, the binding result is recorded as “no binding”.

B35: TetraFab 2143 (antibody)
heavy: B1 heavy with R52F, G53Q, R277F, G278Q
light: B1 light with Y91K
notes: TetraFab
In the case of B35, the binding result was “no binding”.

The values are drawn from patent publication US20230406951A1 (Pfizer, published 2023).
